Our source for the binding result and Kd values is US20260266833A1 (AXOIYA, published 2026).

Positions count from the first letter of the chain named. Read-outs that look alike come from different tables or passages of the source. Non-standard residues stand in square brackets, D forms with d. No end group written: not given here. *: point of attachment. Biotin = O=C1N[C@H]2[C@H](CS[C@H]2CCCCC(=O)*)N1; Arg(Me) = CNC(=N)NCCC[C@H](N)C(=O)O; Ahx = NCCCCCC(=O)O

The labels stand for the following.
T1: Cbx6.wt chromodomain (tags removed) (human, UniProt O95503 6-69)
T1 construct: also called Cbx6-chromo
T1 sequence: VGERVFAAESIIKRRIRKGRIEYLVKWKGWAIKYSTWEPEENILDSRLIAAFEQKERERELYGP

T2: Cbx2.wt chromodomain (tags removed) (human, UniProt Q14781 8-70)
T2 sequence: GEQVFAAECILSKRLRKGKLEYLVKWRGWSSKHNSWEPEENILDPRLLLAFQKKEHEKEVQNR

T3: Cbx7.wt chromodomain (tags removed) (human, UniProt O95931 4-75)
T3 construct: also called Cbx7-chromo
T3 sequence: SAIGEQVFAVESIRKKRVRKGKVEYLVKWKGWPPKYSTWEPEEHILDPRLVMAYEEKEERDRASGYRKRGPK

T4: H3K27me1 (Kme1 at peptide residue 10 (histone H3 K27); N-terminal biotin and aminohexanoic acid linker)
T4 construct: also called H3K27Me1 peptide
T4 peptide: KQLATKAARKSAPATGGVK

T5: H3K27 peptide (non-methylated) (also: N-terminal biotin + Ahx, or FITC at N-terminus)
T5 construct: also called unmethylated H3K27 peptide
T5 peptide: KQLATKAARKSAPATGGVK

T6: H3R17
T6 construct: also called H3R17 peptide (non-modified)
T6 peptide: {Biotin-Ahx}-KSTGGKAPRKQLATKAA

T7: H3K27me2 (Kme2 at peptide residue 10 (histone H3 K27); N-terminal biotin and aminohexanoic acid linker)
T7 construct: also called H3K27Me2 peptide
T7 peptide: KQLATKAARKSAPATGGVK

T8: H3K14
T8 construct: also called H3K14 peptide (non-modified)
T8 peptide: {Biotin-Ahx}-TARKSTGGKAPRKQLAT

T9: H3R17me1
T9 construct: also called H3R17me1 peptide
T9 peptide: {Biotin-Ahx}-KSTGGKAP[Arg(Me)]KQLATKAA

T10: H3K14Ac
T10 construct: also called H3K14Ac peptide
T10 peptide: {Biotin-Ahx}-TARKSTGGK(Ac)APRKQLAT

T11: H3K9 peptide (non-methylated) (also: N-terminal FITC, or biotin + Ahx)
T11 construct: also called unmethylated H3K9 peptide
T11 peptide: ARTKQTARKSTGGKAPR

T12: H3K9me1 (Kme1 at peptide residue 9 (histone H3 K9); N-terminal biotin and aminohexanoic acid linker)
T12 construct: also called H3K9Me1 peptide
T12 peptide: ARTKQTARKSTGGKAPR

T13: H3K9me2 (Kme2 at peptide residue 9 (histone H3 K9); N-terminal biotin and aminohexanoic acid linker)
T13 construct: also called H3K9Me2 peptide
T13 peptide: ARTKQTARKSTGGKAPR

T14: H3K9Ac (Kac at peptide residue 9 (histone H3 K9); N-terminal biotin and aminohexanoic acid linker)
T14 construct: also called H3K9Ac peptide
T14 peptide: ARTKQTARKSTGGKAPR

B1: H3K27me3 peptide (peptide)
peptide: KQLATKAARKSAPATGGVK
modifications: Kme3 (trimethyl-lysine) at the 10th residue (KQLATKAARKme3SAPATGGVK); N-terminus biotin + aminohexanoic acid linker, or FITC at the N-terminus for fluorescence polarization
notes: Synthetic peptide (GenScript); One entry is used for the biotinylated and the FITC-labelled form
B2: Cbx6.VD chromodomain (tags removed) (designed binder)
chain: T1 sequence with E3D, K28E
B3: Cbx6.VD chromodomain-luciferase fusion (designed binder)
chain: MSYYHHHHHHGSDYKDDDDKSSGENLYFQGSGGSVGDRVFAAESIIKRRIRKGRIEYLVKWEGWAIKYSTWEPEENILDSRLIAAFEQKERERELYGP
notes: not shown: engineered YY5 firefly luciferase from Photinus pyralis fused to the C-terminus
B4: Cbx8.wt chromodomain-luciferase fusion (other)
chain: MSYYHHHHHHGSDYKDDDDKSSGENLYFQGSGGSGERVFAAEALLKRRIRKGRMEYLVKWKGWSQKYSTWEPEENILDARLLAAFEEREREMELYGP
notes: as for B3
B5: Cbx7.V1 chromodomain (tags removed) (designed binder)
chain: T3 sequence with E5D, Q6D, V7I, K30E, P34L, K35E
notes: ITC and FP: His6 and Flag tags removed with TEV protease

Experiment [1] addresses T1, Cbx6.wt chromodomain (tags removed). In words: fluorescence polarization.
Experimental: (§3) Fluorescence polarization (FP) assays were performed in a 20 μl volume at a constant histone peptide concentration of 0.5 nM. Binding measurements were performed in FP buffer (25 mM HEPES pH 7.5, 150 mM NaCl, 1 mM DTT, 0.01% TritonX-100) by mixing in a 384-well black plate (Corning) 0.5 nM FITC-labeled histone peptides with serial dilutions of wild-type Cbx chromodomains ranging from 200-0.2 μM. For affinity determination of Cbx7.V1 and all Cbx. VDs, chromodomains were serially diluted from 50 μM to 50 nM. Samples were incubated for 30 min at 25° C. prior to data acquisition. […] Dissociation constants were determined using Prismv.9.3 (GraphPad Software Inc) with a one-site total binding model.
(§4) FP assays was used to measure the affinities of each wild-type Cbx chromodomain (Cbx.wt) and its Cbx. VD version for the H3K9me3 and H3K27me3 peptides (Table 13).
For experiment [2], the target named is Cbx3.wt chromodomain (tags removed) (human, UniProt Q13185 23-81). In words: fluorescence polarization. In general terms: Fluorescence polarisation rises when a labelled molecule tumbles more slowly, as on binding a larger partner.
Experimental: as §3, §4
In experiment [3] the target is Cbx5.wt chromodomain (tags removed) (human, UniProt P45973 17-78). Put plainly: fluorescence polarization.
Experimental: as §3, §4
Experiment [4] deals with T15, Cbx1.wt chromodomain (tags removed) (human, UniProt P83916 17-79).
T15 construct: also called Cbx1-chromo
Put plainly: fluorescence polarization.
Experimental: as §3, §4

The target of experiment [5] is T2, Cbx2.wt chromodomain (tags removed). In words: fluorescence polarization, FITC-peptide 0.5 nM.
Experimental: as §3, §4
In experiment [6] the target is T3, Cbx7.wt chromodomain (tags removed). Put plainly: fluorescence polarization, FITC-peptide 0.5 nM.
Experimental: as §3, §4
Experiment [7] has the same target. Put plainly: fluorescence polarization, FITC-peptide 0.5 nM. This is another data set of the same source.
Experimental: as §3
For experiment [8], the target named is B1. Put plainly: fluorescence polarization.
Experimental: as §3, §4
The target of experiment [9] is T4, H3K27me1. Put plainly: luciferase-fusion assay on immobilized peptide. As to the method: (§1) For luciferase-based assays, 384-well white plates (PerkinElmer) were coated for 16 h at 4° C. with 4 μg/ml streptavidin (New England Biolabs, N7021S) in TBS pH 8.5 (50 mM Tris-HCl pH 8.5, 150 mM NaCl). Each well was blocked with 60 μl/well of TBS pH 8.5 containing 0.5% BSA (TB buffer) and incubated at 25° C. for 1 h. Plates were washed four times with 90 μl/well of PBS pH 7.4, 0.05% Tween-20 (PT buffer) and incubated with 25 μl/well of biotinylated histone peptides at 5 μg/ml in TB buffer pH 8.5 for 30 min at 25° C. Plates were washed and incubated with Cbx chromodomain-luciferase fusions diluted to 0.1 nM for Cbx. VD or 100 nM for Cbx.wt in TB buffer, 0.05% Tween-20, 1 mM DTT, 5% glycerol (TBT buffer). Plates were incubated for 1 h at 25° C. with gentle shaking, washed six times and luminescence intensity was measured with a Biotek Synergy 5 plate reader (Biotek) using the ONE-Glo™ EX luciferase assay system reagent (Promega). Following background subtraction of the luminescence signal derived from wells coated with streptavidin, the luminescence intensity was normalized to wells with immobilized H3K9me3 peptide.
(§2) To enhance detection sensitivity, each chromodomain was expressed as a fusion to the N-terminus of an engineered firefly luciferase and binding was measured by luminescence intensity.

The target of experiment [10] is T5, H3K27 peptide (non-methylated). Put plainly: luciferase-fusion assay on immobilized peptide. As to the method: as §1, §2
Experiment [11] addresses T6, H3R17. Put plainly: luciferase-fusion assay on immobilized peptide. As to the method: as §1, §2
Experiment [12] deals with T7, H3K27me2. Put plainly: luciferase-fusion assay on immobilized peptide. As to the method: as §1, §2
In experiment [13] the target is T8, H3K14. Put plainly: luciferase-fusion assay on immobilized peptide. As to the method: as §1, §2
In experiment [14] the target is B1. Put plainly: luciferase-fusion assay on immobilized peptide. The procedure:
as §1, §2

Experiment [15] addresses T9, H3R17me1. Put plainly: luciferase-fusion assay on immobilized peptide. As to the method:
as §1, §2

The target in experiment [16] is T10, H3K14Ac. Put plainly: luciferase-fusion assay on immobilized peptide. As to the method: as §1, §2
The target in experiment [17] is T11, H3K9 peptide (non-methylated). In words: luciferase-fusion assay on immobilized peptide. The procedure:
as §1, §2

Experiment [18] deals with T12, H3K9me1. Put plainly: luciferase-fusion assay on immobilized peptide. As to the method: as §1, §2
Experiment [19] has as its target T13, H3K9me2. In words: luciferase-fusion assay on immobilized peptide. The procedure:
as §1, §2

Experiment [20] concerns the target T16, H4K20me3 (Kme3 at peptide residue 8 (histone H4 K20); N-terminal biotin and aminohexanoic acid linker).
T16 construct: also called H4K20Me3 peptide
Put plainly: luciferase-fusion assay on immobilized peptide. The procedure:
as §1, §2

Experiment [21] addresses T14, H3K9Ac. In words: luciferase-fusion assay on immobilized peptide. The procedure: as §1, §2
The target in experiment [22] is H4K20 peptide (N-terminus biotin + aminohexanoic acid linker). Put plainly: luciferase-fusion assay on immobilized peptide. The procedure:
as §1, §2

For experiment [23], the target named is B1. Put plainly: ITC, peptide titrated into the chromodomain, 25 C. (In general: Isothermal titration calorimetry measures the heat released or taken up as one component is titrated into another.)
Experimental: Dissociation constants were determined using the one-site binding model supplied in MicroCal PEAQ-ITC analysis software (version 1.1.0.1262) with the fitted offset control. Data are the average from three independent experiments ±1 SD.
The target of experiment [24] is B1. In words: fluorescence polarization, FITC-peptide 0.5 nM.
Experimental: as §3

T15 sequence (P83916 17-79 limits assumed): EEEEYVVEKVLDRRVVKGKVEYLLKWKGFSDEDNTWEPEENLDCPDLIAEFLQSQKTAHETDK
Sequence of Cbx3.wt chromodomain (tags removed) (Q13185 23-81 limits assumed): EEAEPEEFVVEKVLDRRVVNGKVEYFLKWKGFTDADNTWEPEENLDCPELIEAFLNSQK
Sequence of Cbx5.wt chromodomain (tags removed) (P45973 17-78 limits assumed): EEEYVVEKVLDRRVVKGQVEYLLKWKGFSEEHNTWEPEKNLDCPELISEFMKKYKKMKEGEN

B1: the binding result in experiment [1], in [2], in [3] and in [4] was “no binding” in each case. The Kd in [5] came out at 100 µM; in experiment [6] it was 110 µM; in experiment [7], 110 µM.
Take B2: the binding result in experiment [8] was “no binding”.
On to B3, for which the binding result in [9], in experiment [10], in [11], in experiment [12], in [13] and in [14] was “no binding (tested: 0.1 nM)” in each case. Moreover, in [15], the binding result is recorded as “no binding (tested: 0.1 nM)”.
Take B4: the binding result in experiment [9], in experiment [16], in [10], in experiment [17], in experiment [11] and in [12] was “no binding (tested: 100 nM)” each time. Besides, the binding result in [13], in experiment [18], in experiment [19], in [20], in [21] and in experiment [15] was “no binding (tested: 100 nM)” each time. The binding result in experiment [22] was “no binding (tested: 100 nM)”.
Turning to B5, the Kd in experiment [23] stood at 7.8 µM; in experiment [24] it was 4 µM.

By Kd is commonly meant the concentration at which binding is half-saturated.
